{"source": "patent US20220168347A1", "about": "(published 2022)", "binders": {"B1": {"name": "A*24:02/gp100-intron4 TCR (TCR, V domains shown)", "Valpha": "KQEVTQIPAALSVPEGENLVLNCSFTDSAIYNLQWFRQDPGKGLTSLLLIQSSQREQTSGRLNASLDKSSGRSTLYIAASQPGDSATYLCAVATDSWGKLQFGAGTQVVVTP", "Vbeta": "AAGVIQSPRHLIKEKRETATLKCYPIPRHDTVYWYQQGPGQDPQFLISFYEKMQSDKGSIPDRFSAQQFSDYHSELNMSSLELGDSALYFCASSLLPEGTGRVSGYTFGSGTRLTVV"}}, "molecular_target": "T1, gp100 (gp100-intron4) peptide on HLA-A*24:02 (human)", "T1 peptide": "VYFFLPDHL", "test": "multimer staining", "data": [{"binder": "B1", "values": [{"measurement": "binding result", "result": "recognises"}]}]}
